The numbers were not newly measured in paper PMC5075297, which cites them from elsewhere.

The target of series [1] is cellular fibronectin (Homo sapiens) (UniProt P02751).
Series [2] has as its target type I collagen (Homo sapiens) (UniProt P02452).
Series [3] deals with tropoelastin (Homo sapiens) (UniProt P15502).
UniProt P15502, sequence (P15502 27-786): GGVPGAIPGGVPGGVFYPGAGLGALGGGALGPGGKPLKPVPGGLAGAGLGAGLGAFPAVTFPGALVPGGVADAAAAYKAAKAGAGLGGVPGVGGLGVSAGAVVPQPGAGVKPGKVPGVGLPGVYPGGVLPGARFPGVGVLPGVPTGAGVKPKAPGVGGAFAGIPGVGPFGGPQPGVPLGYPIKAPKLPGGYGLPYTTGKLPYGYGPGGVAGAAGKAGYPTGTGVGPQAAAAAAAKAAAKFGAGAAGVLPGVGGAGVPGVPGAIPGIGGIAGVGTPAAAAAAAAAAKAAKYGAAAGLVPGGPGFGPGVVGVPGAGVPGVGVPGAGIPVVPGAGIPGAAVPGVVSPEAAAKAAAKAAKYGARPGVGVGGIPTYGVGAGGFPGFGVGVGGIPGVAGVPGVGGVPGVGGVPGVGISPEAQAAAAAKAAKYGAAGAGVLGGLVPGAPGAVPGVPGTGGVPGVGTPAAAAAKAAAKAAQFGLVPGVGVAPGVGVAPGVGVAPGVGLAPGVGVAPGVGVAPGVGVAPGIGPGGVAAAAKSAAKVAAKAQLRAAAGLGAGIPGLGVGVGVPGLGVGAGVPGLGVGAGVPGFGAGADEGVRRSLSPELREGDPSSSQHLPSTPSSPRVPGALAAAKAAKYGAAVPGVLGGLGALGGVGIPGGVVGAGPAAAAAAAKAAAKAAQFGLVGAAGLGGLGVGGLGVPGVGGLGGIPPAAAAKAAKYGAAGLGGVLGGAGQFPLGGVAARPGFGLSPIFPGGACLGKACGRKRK

UniProt P02751, sequence (P02751 32-2477): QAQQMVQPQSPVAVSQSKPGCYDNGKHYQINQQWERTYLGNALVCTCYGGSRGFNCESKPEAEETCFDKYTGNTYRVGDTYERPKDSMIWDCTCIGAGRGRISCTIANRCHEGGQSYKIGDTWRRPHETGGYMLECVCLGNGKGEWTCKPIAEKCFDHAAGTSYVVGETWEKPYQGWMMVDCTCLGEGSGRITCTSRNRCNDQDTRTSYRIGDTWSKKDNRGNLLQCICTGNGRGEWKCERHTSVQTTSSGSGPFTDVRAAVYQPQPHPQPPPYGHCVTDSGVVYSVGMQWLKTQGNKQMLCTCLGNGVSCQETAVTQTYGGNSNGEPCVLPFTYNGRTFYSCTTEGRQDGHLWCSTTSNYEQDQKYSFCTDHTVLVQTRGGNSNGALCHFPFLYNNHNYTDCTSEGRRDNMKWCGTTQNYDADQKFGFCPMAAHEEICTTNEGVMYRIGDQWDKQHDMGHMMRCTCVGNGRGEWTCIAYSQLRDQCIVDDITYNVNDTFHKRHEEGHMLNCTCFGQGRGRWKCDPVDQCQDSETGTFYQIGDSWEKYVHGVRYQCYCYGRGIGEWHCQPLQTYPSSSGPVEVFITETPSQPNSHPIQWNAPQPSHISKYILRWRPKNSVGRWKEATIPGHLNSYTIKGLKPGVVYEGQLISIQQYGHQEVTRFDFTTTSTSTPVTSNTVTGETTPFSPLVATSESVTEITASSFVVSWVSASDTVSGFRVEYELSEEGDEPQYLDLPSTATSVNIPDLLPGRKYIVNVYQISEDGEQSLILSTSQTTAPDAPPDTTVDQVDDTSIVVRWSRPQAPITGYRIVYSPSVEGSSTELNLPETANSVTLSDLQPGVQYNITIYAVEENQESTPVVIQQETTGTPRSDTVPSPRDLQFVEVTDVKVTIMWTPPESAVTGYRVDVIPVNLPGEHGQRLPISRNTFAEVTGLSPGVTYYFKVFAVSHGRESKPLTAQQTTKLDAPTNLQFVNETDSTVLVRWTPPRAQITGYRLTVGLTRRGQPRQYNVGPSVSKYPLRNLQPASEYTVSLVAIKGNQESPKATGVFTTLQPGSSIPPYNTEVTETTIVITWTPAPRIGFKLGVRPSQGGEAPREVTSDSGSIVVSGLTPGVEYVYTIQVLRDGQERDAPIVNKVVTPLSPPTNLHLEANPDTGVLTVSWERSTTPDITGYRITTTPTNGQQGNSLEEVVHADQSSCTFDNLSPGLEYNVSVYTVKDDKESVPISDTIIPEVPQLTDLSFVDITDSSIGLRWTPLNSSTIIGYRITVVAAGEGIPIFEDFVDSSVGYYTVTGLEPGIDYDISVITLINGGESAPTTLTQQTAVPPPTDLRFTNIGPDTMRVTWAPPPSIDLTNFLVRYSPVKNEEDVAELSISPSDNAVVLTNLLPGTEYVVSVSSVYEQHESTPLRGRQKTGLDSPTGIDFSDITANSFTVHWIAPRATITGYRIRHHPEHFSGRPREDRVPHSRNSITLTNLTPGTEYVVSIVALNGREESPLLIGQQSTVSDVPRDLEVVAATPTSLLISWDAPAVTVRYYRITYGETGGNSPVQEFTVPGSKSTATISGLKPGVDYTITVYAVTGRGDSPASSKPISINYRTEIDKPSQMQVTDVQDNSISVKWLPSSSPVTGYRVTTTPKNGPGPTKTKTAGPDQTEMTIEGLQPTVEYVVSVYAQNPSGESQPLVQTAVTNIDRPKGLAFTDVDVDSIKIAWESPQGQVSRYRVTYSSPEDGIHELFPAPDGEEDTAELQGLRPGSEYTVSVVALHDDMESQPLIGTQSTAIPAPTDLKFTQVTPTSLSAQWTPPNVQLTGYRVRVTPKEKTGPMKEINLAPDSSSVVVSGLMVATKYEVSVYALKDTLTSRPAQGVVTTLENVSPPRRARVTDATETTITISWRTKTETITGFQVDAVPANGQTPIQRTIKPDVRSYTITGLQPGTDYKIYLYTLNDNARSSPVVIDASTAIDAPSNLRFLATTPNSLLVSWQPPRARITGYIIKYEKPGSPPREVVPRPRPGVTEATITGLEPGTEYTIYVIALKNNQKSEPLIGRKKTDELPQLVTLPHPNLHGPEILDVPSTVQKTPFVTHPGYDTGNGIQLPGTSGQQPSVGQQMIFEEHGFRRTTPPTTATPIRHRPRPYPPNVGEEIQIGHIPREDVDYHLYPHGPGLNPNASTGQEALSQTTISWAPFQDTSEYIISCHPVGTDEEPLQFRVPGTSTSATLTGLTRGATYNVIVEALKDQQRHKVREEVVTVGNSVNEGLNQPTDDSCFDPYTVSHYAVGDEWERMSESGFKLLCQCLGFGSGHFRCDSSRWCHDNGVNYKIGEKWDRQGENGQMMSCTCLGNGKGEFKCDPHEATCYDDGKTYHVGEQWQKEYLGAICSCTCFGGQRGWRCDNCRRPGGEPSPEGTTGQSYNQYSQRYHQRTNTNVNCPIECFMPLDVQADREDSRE

A word on the Kd: it is the free concentration of one partner at which half of the binding sites on the other are occupied at equilibrium, for simple one-to-one binding. On to LOX (from UniProt P28300), for which the dissociation constant (Kd) in series [1] is 2.5 nM; in series [2], 5.2 nM; in series [3], 1.9 nM.
